Patent US20230159612A1 (published 2023)

What was measured:
[1] = molecular target: T1, MAGE-A4 peptide on HLA-A*02:01 (human); assay: multimer staining
T1 peptide: GVYDGREHTV

[2] = molecular target: T2, ASTN1 peptide on HLA-A*02:01 (human); assay: cytokine release
T2 peptide: KLYGLDWAEL

Row | Binder | binding result [1] | binding result [2]
1 | TCR-1 (TCR, V domains shown) Valpha: AQKITQTQPGMFVQEKEAVTLDCTYDTSDQSYGLFWYKQPSSGEMIFLIYQGSYDEQNATEGRYSLNFQKARKSANLVISASQLGDSAMYFCAMSGDSAGNMLTFGGGTRLMVKP Vbeta: not shown | recognises | no recognition
2 | TCR-3 (TCR, V domains shown) Valpha: GENVEQHPSTLSVQEGDSAVIKCTYSDSASNYFPWYKQELGKRPQLIIDIRSNVGEKKDQRIAVTLNKTAKHFSLHITETQPEDSAVYFCAASRGTGFQKLVFGTGTRLLVSP Vbeta: DTAVSQTPKYLVTQMGNDKSIKCEQNLGHDTMYWYKQDSKKFLKIMFSYNNKELIINETVPNRFSPKSPDKAHLNLHINSLELGDSAVYFCASSQFWDGAGDEQYFGPGTRLTVT | recognises | no recognition
3 | TCR-2 (TCR, V domains shown) Valpha: AQKITQTQPGMFVQEKEAVTLDCTYDTSDPSYGLFWYKQPSSGEMIFLIYQGSYDQQNATEGRYSLNFQKARKSANLVISASQLGDSAMYFCAMSGGYTGGFKTIFGAGTRLFVKA Vbeta: DSGVTQTPKHLITATGQRVTLRCSPRSGDLSVYWYQQSLDQGLQFLIQYYNGEERAKGNILERFSAQQFPDLHSELNLSSLELGDSALYFCASSGGDGDEQFFGPGTRLTVL |  | no recognition
